T1: IL-4 (Homo sapiens (Human), UniProt P05112 25-153)
T1 sequence: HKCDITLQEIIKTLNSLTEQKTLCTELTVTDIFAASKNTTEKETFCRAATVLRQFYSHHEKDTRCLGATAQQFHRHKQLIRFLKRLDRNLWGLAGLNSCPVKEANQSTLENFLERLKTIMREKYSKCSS

T2: recombinant human OX40 tagged with histidine tag (hOX40-His) (human, UniProt P43489 29-216)
T2 construct: bought (Reprokine); also called hOX-His; not shown: histidine tag
T2 sequence (looked up): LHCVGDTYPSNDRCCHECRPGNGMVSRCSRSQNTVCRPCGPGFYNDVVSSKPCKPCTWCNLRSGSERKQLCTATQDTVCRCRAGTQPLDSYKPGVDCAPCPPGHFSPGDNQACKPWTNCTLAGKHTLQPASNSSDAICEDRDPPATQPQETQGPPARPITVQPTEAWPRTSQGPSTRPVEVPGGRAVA


How the values were obtained:
[1] = biological target: T3, IL-2 (specificity ELISA of Example 6) (Homo sapiens (Human), UniProt P60568 21-153); assay: specificity ELISA: plate coated with 250 ng ligand, 100 nM IgG, anti-human Fc-HRP
T3 sequence (P60568 21-153 limits assumed): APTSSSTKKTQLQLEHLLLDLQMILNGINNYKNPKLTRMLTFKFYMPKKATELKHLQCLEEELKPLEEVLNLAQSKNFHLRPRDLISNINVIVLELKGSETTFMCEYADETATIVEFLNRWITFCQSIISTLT

BSA = BSA (UniProt P02769 25-607); assay: as above
Chain of BSA (P02769 25-607 limits assumed): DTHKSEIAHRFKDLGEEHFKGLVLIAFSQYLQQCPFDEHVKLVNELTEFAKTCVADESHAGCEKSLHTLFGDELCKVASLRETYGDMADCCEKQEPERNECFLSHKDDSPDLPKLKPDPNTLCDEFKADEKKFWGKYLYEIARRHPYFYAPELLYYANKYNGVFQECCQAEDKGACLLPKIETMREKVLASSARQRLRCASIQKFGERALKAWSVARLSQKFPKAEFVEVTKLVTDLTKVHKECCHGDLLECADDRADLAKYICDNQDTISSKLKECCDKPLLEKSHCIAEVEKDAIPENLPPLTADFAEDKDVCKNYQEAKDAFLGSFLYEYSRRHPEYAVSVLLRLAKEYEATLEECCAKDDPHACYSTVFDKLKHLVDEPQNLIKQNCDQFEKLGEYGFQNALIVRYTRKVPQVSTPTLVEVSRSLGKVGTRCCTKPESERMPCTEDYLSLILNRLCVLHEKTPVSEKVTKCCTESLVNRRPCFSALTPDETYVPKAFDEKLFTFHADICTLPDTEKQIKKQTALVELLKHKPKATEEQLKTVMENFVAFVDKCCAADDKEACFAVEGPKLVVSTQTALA

IL-4 = biological target: T1, IL-4; assay: as above
recombinant human IL-13 [2] = biological target: T4, recombinant human IL-13 (human, UniProt P35225 35-146); assay: cell-based or functional assay
T4 sequence (P35225 35-146 limits assumed): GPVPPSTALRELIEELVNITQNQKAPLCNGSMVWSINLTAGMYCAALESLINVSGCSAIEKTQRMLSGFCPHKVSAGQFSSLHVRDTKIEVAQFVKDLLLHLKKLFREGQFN

[3] = biological target: T5, hTSLP-His (ACRO biosystems cat: TSP-H52Hb) (human, UniProt Q969D9 29-159, limits assumed); assay: cell-based or functional assay
[4] = biological target: T5, hTSLP-His (ACRO biosystems cat: …); assay: competition ELISA: 3 nM hTSLP-His pre-mixed with IgG, plate coated with TSLP-R-Fc
recombinant human IL-13 [5] = biological target: T4, recombinant human IL-13; assay: SPR (BIAcore T200), IgG captured, hIL-13 as analyte 20 to 0.6 nM
[6] = biological target: T6, recombinant cynomolgus monkey IL-13 (cynomolgus monkey, UniProt Q0PW92 21-132); assay: ELISA, ligand coated, IgG titrated 1 to 1000 nM
T6 construct: also called rc-IL-13; cIL-13
T6 sequence (Q0PW92 entry or part of it): as the sequence (P35225 35-146 limits assumed) above, with G1S, R10K, M42V, S67N, H83R, L100V counted along it

cynomolgus monkey TSLP = biological target: T7, cynomolgus monkey TSLP (cynomolgus monkey, UniProt A0A7N9CAT7 29-159); assay: ELISA, ligand coated, IgG titrated 1 to 1000 nM
T7 construct: also called cTSLP; cyno-TSLP
T7 sequence (A0A7N9CAT7 entry or part of it): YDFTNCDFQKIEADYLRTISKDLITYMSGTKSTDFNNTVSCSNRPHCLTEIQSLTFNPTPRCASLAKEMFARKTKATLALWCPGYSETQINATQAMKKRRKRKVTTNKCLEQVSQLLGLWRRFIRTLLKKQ

human TSLP = biological target: T8, human TSLP (human, UniProt Q969D9 29-159); assay: ELISA, ligand coated, IgG titrated 1 to 1000 nM
T8 construct: also called hTSLP; h-TSLP

recombinant human IL-13 [7] = biological target: T4, recombinant human IL-13; assay: cell-based or functional assay; remark: listed apart in the source
[8] = biological target: T3, IL-2 (specificity ELISA of Example 6); assay: specificity ELISA, ligand coated
[9] = biological target: T5, hTSLP-His (ACRO biosystems cat: …); assay: competition ELISA: hTSLP-His pre-mixed with soluble TSLP-R as competitor, plate coated with TSLP-R-Fc
[10] = biological target: T5, hTSLP-His (ACRO biosystems cat: …); assay: blocking ELISA: competitor mixed with 3 nM hTSLP-His, then on a plate coated with TSLP-R-Fc; bound hTSLP-His by anti-His-HRP
[11] = biological target: T2, recombinant human OX40 tagged with …; assay: yeast surface display scFv, flow cytometry, 90 nM hOX40-His
[12] = biological target: T9, recombinant human PD-1 tagged with histidine tag (hPD-1-His) (human, UniProt Q15116 25-167, limits assumed); assay: yeast surface display scFv, flow cytometry, 30 nM hPD-1-His
T9 construct: bought (Reprokine); not shown: histidine tag
T9 sequence (Q15116 25-167 limits assumed): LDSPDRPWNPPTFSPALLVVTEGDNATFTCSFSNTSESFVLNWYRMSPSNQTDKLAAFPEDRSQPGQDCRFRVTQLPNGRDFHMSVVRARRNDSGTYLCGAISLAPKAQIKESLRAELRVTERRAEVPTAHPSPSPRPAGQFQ

IC50, inhibition of IL-13 signaling cascade in HEK-Blue IL-4/IL-13 cells (recombinant human IL-13 [2])	IC50, inhibition of TSLP dependent pSTAT5 activation in MUTZ5 cells [3]	IC50 [4]	Kd (recombinant human IL-13 [5])	koff (recombinant human IL-13 [5])	kon (recombinant human IL-13 [5])	EC50 [6]	EC50 (cynomolgus monkey TSLP)	EC50 (human TSLP)	IC50 (read off the curve); HEK-Blue IL-4/IL-13 STAT6-SEAP reporter with 0.4 nM rh-IL-13, OD 620 (recombinant human IL-13 [7])	binding result [8]	IC50 [9]	IC50 (read off the curve) [10]	binding result [11]	binding result [12]	Binder	binding result [1]	binding result (BSA)	binding result (IL-4)
1.3 nM	13 pM	0.41 nM	3.65 nM	0.0157 s⁻¹	4.31e+06 M⁻¹ s⁻¹	7.1 nM	8.2 nM	2.5 nM							BDG33.023 (antibody, human IgG1, V domains shown, IgG (human IgG1 format, symmetrical IgG); also called BGD33.023; BGD33.0023) VH: QMQLVESGGGVVQPGRSLRLSCAASGFAFRTYGMHWVRQAPGKGLEWVAVIWYDGSNTHYADSVKGRFTITRDNSKNTLNLQMNSLRAEDTAVYYCARAPQWYLSAEAFDLWGQGTMVTVSS VL: SYVLTQPPSVSVAPGQTARITCGGNLIGSKLVHWYQQKPGQAPVLVVYDDSDRPSRIPERFSGSNSGNTATLTISRVEAGDEADYYCQVWDHSSDHVVFGGGTKLTVL	no binding (tested: 100 nM IgG (not on the sheet))	no binding (tested: 100 nM IgG (not on the sheet))	no binding (tested: 100 nM IgG (not on the sheet))
25 nM			0.903 nM	0.0036 s⁻¹	4.07e+06 M⁻¹ s⁻¹	1.5 nM	148 nM	12.8 nM	~20 nM	no binding (tested: 100 nM IgG)					BDG33.025 (antibody, human IgG1, V domains shown, IgG (human IgG1 format, symmetrical IgG); also called BGD33.025; BDG33.0025) VH: QMQLVESGGGVVQPGRSLRLSCAASGFTFRTYGMHWVRQAPGKGLEWVADIWYDGSNKHYADSVKGRFTITRDNSKNTLNLQMNSLRAEDTAVYYCARAPQWYLVAEPFDLWGQGTMVTVSS VL: SYVLTQPPSVSVAPGQTARITCGGNLIGSKLVHWYQQKPGQAPVLVVYDDSDRPSLIPERFSGSNSGNTATLTISRVEAGDEADYYCQVWDSSSDGVVFGGGTKLTVL		no binding (tested: 100 nM IgG (not on the sheet))	
											3 nM	~3 nM			TSLP-R-Fc tag (ACRO biosystems TSR-H525a) (Fc fusion, UniProt Q9HC73 23-231, looked up, bought; also called TSLP receptor; not shown: Fc tag) QGGAAEGVQIQIIYFNLETVQVTWNASKYSRTNLTFHYRFNGDEAYDQCTNYLLQEGHTSGCLLDAEQRDDILYFSIRNGTHPVFTASRWMVYYLKPSSPKHVRFSWHQDAVTVTCSDLSYGDLLYEVQYRSPFDTEWQSKQENTCNVTIEGLDAEKCYSFWVRVKAMEDVYGPDTYPSDWSEVTCWQRGEIRDACAETPTPPKPKLSK			
													binds	binds	3212ACOXC81 (OX40 library) (scFv, V domains shown, not shown: linker) VH: QVQLVESGGGVVQPGRSLRLDCKASGIDFSNSGMHWVRQAPGKGLEWVAVIWYDGSTRYYADSVKGRFTISRDNSKNTLFLQMNSLRAEDTAVYYCATNDDYWGQGTLVTVSS VL: EIVLTQSPATLSLSPGERATLSCRASQSVIHYLAWYQQKPGQAPRLLIYDASNRATGIPARFSGSGSGTDFTLTISSLEPEDFAVYYCQQYDNWPLTFGQGTKVEIK			
